Experimental data taken from patent US20200140532A1.
Several values for one entry are separate records, joined by “and”; a condition that tells them apart may be missing. Identical values can stand only once.

How the values were obtained:
Test in all cases: periplasmic extract ELISA, control
[1] = biological target: recombinant human Aggrecan G1-IGD-G2 (human) (UniProt P16112)
[2] = biological target: recombinant bovine Aggrecan G1-IGD-G2 (bovine) (UniProt P13608)
[3] = biological target: recombinant dog Aggrecan G1-IGD-G2 (dog) (UniProt Q28343)
[4] = biological target: recombinant cynomolgus Aggrecan G1-IGD-G2 (cynomolgus)
[5] = biological target: recombinant rat Aggrecan G1-IGD-G2 (rat) (UniProt P07897)

OD 450 nm [1]: 0.05 OD 450 nm
OD 450 nm [2]: 0.05 OD 450 nm and 0.06 OD 450 nm
OD 450 nm [3]: 0.06 OD 450 nm
OD 450 nm [4]: 0.06 OD 450 nm and 0.05 OD 450 nm
OD 450 nm [5]: 0.06 OD 450 nm
Substance: cAbLys3 (VHH)
